Experimental data: patent publication US20240269180A1

Assays:
[1] = target: PD-1 on tumor infiltrating lymphocytes (human) (UniProt Q15116); experiment: flow cytometry of tumor digest H3046 stained with anti-PD-1 clone EH12.2H7; percent of CD3+ cells stained PD-1+
[2] = target: PD-1 on tumor infiltrating lymphocytes (human) (UniProt Q15116); experiment: flow cytometry of tumor digest M1156 stained with anti-PD-1 clone EH12.2H7; percent of CD3+ cells stained PD-1+
[3] = target: PD-1 on tumor infiltrating lymphocytes (human) (UniProt Q15116); experiment: flow cytometry of tumor digest OV8074 stained with anti-PD-1 clone EH12.2H7; percent of CD3+ cells stained PD-1+

Chain of UniProt Q15116 (Q15116 25-288): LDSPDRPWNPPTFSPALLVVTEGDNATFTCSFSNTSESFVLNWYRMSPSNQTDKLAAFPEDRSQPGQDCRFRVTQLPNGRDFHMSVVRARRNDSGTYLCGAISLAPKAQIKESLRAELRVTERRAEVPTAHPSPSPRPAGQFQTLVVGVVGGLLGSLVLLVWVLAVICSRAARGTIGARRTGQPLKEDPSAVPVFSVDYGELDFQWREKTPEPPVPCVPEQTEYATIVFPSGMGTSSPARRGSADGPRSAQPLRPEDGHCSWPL

- Pre-sort % PD-1+ (of CD3+) [1]: 13%
- Pre-sort % PD-1+ (of CD3+) [2]: 93%
- Pre-sort % PD-1+ (of CD3+) [3]: 70%
B1: anti-PD-1 antibody clone EH12.2H7 (antibody, from another filing, V domains shown)
VH: QVQLQQSGAELAKPGASVQMSCKASGYSFTSSWIHWVKQRPGQGLEWIGYIYPSTGFTEYNQKFKDKATLTADKSSSTAYMQLSSLTSEDSAVYYCARWRDSSGYHAMDYWGQGTSVTVSS
VL: DIVLTQSPASLTVSLGQRATISCRASQSVSTSGYSYMHWYQQKPGQPPKLLIKFGSNLESGIPARFSGSGSGTDFTLNIHPVEEEDTATYYCQHSWEIPYTFGGGTKLEIK
